In patent US9938505B2, “Polypeptide composition and culture method for pluripotent stem cell using same” (FUJIFILM Corporation, priority 2013, dated 2018):

Assays:
[1] = Evaluation of adsorbability with respect to culture dish (OPA/NAC fluorescence); type: physicochemical; settings: FIG. 1
Description: Each of the polypeptides obtained as above was diluted with a predetermined buffer such that they could be added to wells at a predetermined final concentration of 0 pmol/cm^2 to 200 pmol/cm^2. Thereafter, each of the polypeptides was added in an amount of 64 μL to a plasma-treated 96-well plate made of polystyrene (Tissue Culture-Treated, Falcon). Each of the polypeptides was allowed to adsorbed onto the plate by being incubated for 2 hours at 37° C., and then the wells were washed twice with PBS, thereby obtaining surfaces coated with each of the polypeptides of RCP-1 to RCP-16.
Among the surfaces coated with each of the polypeptides obtained as above, the surfaces coated with RCP-1 and RCP-11 to RCP-16 were applied with 64 μL of a borate buffer and 64 μL of 1 N NaOH, followed by incubation for 24 hours at 80° C. and 100% humidity. […] After incubation for 30 minutes at 40° C., the fluorescence intensity thereof was measured by using an ENVISION MULTILABEL COUNTER (trade name, PerkinElmer Inc.) (excitation 355 nm/fluorescence 486 nm). […]

iPS cells = experiment: Cell growth property evaluation 2 (ALP activity, 72 hours); type: cell-based, human; settings: for Number of cells (%/LN-511): same method as Cell growth property evaluation 2, Table 13
Description: Each of the polypeptide liquids was added to the respective wells of a plasma-treated 96-well plate (BD Falcon) made of polystyrene having a plasma-treated cell culture surface, and the plate was held as it is for 2 hours at 37° C. such that the polypeptide was adsorbed thereonto, thereby obtaining a peptide-treated 96-well plate having a polypeptide-coated surface. Into the respective wells of the obtained peptide-treated 96-well plate, iPS cells suspended in a medium obtained by mixing TeSR2 (Stemcell Technologies Inc.) with NUTRISTEM (registered trademark, Bio Industries Inc.) at 1:1 (volume ratio) were seeded at a cell density of 10,000 cells/well. After 72 hours of culture, nonadhesive cells were washed off with PBS, and only adhesive cells were immobilized using 4% by mass paraformaldehyde (Wako Pure Chemical Industries, Ltd.). By using an ATTOPHOS (registered trademark) AP FLUORESCENT SUBSTRATE SYSTEM (Promega Corporation), the ALP activity was calculated, and from the calibration curve, the number of undifferentiated iPS cells having the ALP activity was calculated. In Table 11, the cell growth rate is expressed as a ratio calculated by regarding the number of cells after 72 hours of culture using recombinant laminin as being 100%. n=3.
By the same method as described in <Cell growth property evaluation 2> of Example 3, the cell growth properties of the polypeptide compositions II-1 and II-2 was evaluated. […] That is, it was understood that the polypeptide in which Cys 25, Cys 31, and the intramolecular cross-linking structure bind with each other is excellent in the cell growth activity.

[2] = target: T1, Plasminogen Activator Inhibitor-1 (PAI-1) (Homo sapiens, UniProt P05121); experiment: Evaluation of PAI-1 binding properties (plate assay, Scatchard plot); settings: for Binding constant: KA from slope of Scatchard plot, PAI-1 170 nM to 2.6 nM, RCP-5 immobilized from 100 μg/ml
T1 construct: purchased R & D Systems Inc 1786-PI
Description: By using a Plasminogen Activator Inhibitor-1 (PAI-1) known to bind with a polypeptide having a structure in which Cys 25 and Cys 31 are cross-linked to each other, detection of the cross-linking structure of Cys 25 and Cys 31 was tried.
The polypeptide compositions II-1 and II-2 (100 μg/ml) were added to a flat-bottomed black 96-well plate (half-Area) made of polystyrene at 64 μL/well. The entirety of the plate was covered with a sealing film (Funakoshi Co., Ltd.) and left to stand at 4° C. such that RCP-5 in each of the polypeptide compositions was immobilized. After 12 hours, the liquid in the wells was discarded, and TBS (NIPPON GENE CO., LTD.) containing 5% Bovine Serum Albumin (Sigma-Aldrich Co, LLC.) was added thereto at 150 μL/well. The plate was left to stand for 1 hour at 37° C., and then the liquid in the wells was discarded. Furthermore, BLOCKER CASEIN (trade name, Thermo Scientific Inc.) was added thereto at 150 μL/well, and the plate was left to stand at 37° C. as above so as to performing blocking. After 1 hour, TBS (TBST) containing 0.05% Tween 20 was added thereto at 150 μL/well, and the liquid was continuously discarded from the wells. By performing the above operation 4 times in total, the inside of the wells was washed.
Then, a solution of recombinant PAI-1 (catalog number 1786-PI, R & D Systems Inc) serially diluted with TBS from 170 nM to 2.6 nM at the same factor was added to the respective well at 50 μL/well, and the plate was left to stand at 37° C. After 1 hour, the PAI-1 solution was discarded from the wells, and the wells were washed with TBST 4 times in total by the same method as described above, thereby removing unbound PAI-1. […]
Furthermore, an undiluted solution of HRP-labeled anti-goat IgG antibodies (catalog number 81-1620, Life Technologies) was diluted 7,500-fold with TBS and added to the wells at 100 μL/well. […] The excitation wavelength and the fluorescence wavelength were set to be 330 nm and 410 nm respectively, and the binding of RCP-5 to PAI-1 was measured as a relative fluorescence unit by using ENVISION (trade name, PerkinElmer Inc). […]

T1 sequence (P05121 24-402): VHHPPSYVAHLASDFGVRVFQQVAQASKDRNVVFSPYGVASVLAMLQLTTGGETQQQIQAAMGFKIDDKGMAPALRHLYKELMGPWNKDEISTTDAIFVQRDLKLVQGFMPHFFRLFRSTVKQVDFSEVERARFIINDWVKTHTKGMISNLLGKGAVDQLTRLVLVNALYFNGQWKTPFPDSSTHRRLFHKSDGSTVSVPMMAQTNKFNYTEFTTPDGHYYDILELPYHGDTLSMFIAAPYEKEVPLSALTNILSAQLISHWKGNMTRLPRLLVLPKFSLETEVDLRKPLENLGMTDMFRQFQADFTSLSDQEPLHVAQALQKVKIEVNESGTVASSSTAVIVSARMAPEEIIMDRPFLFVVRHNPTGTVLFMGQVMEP

Molecule	amount adsorbed onto the plate, as fraction of the amount of the polypeptide including SEQ ID NO: 3 [1]	cell growth properties (in words) (iPS cells; comparison of compositions)	Number of cells (%/LN-511) (iPS cells)	Binding constant [2]	binding constant of PAI-1 (in words) ([2]; comparison of compositions)
RCP-14: recombinant polypeptide SEQ ID NO: 27; human vitronectin positions 1-55 (GPLGDQESCKGRCTEGFNVDKKCQCDELCSYYQSCCTDYTAECKPQVTRGDVFTMPEDE; Synthetic peptide RCP-14)	about ¼				
II-1: polypeptide composition containing RCP-5 after reduction treatment with Tris(2-carboxyethyl)phosphine Hydrochloride and dialysis (protein) MDQESCKGRCTEGFNVDKKCQCDELCSYYQSCCTDYTAECKPQVTRGDVFTMPEDEFWGRTSAGTRQPQFISRDWHGVPGQVDAAMAGRIYISGMAPRPSLAKKQRFRHRNRKGYRSQRGHSRGRNQN		better than that of the polypeptide composition II-2	107 ± 47	0.22	greater
II-2: comparative polypeptide composition containing RCP-5, frozen at −80° C. without being treated, then dialyzed (protein) MDQESCKGRCTEGFNVDKKCQCDELCSYYQSCCTDYTAECKPQVTRGDVFTMPEDEFWGRTSAGTRQPQFISRDWHGVPGQVDAAMAGRIYISGMAPRPSLAKKQRFRHRNRKGYRSQRGHSRGRNQN			79 ± 5	0.06	
RCP-13: recombinant polypeptide SEQ ID NO: 26; human vitronectin positions 1-55, 56-130 (protein, Synthetic peptide RCP-13) GPLGDQESCKGRCTEGFNVDKKCQCDELCSYYQSCCTDYTAECKPQVTRGDVFTMPEDEYTVYDDGEEKNNATVHEQVGGPSLTSDLQAQSKGNPEQTPVLKPEEEAPAPEVGASKPEGIDSRPETLHPGRPQP	about ¼				
